Assay results reported in US20190338028A1 (PROMAB BIOTECHNOLOGIES, published 2019).

Target: T1, CD47 on human cancer cells and in human tumor and normal tissue samples (human, UniProt Q08722 19-323)
T1 construct: whole, on cells; also called CD47 antigen; CD47 tumor antigen
Assay: IHC staining of tumor and normal tissue samples

B1: humanized CD47 ScFv fused in frame with C-terminal human Fc (scFv)
scFv: EVQLVESGGGLVQPGGSLRLSCAASGFTFSGYGMSWVRQAPGKGLEWVATITSGGTYTYYPDSVKGRFTISRDNAKNSLYLQMNSLRAEDTAVYYCARSLAGNAMDYWGQGTLVTVSSGGGGSGGGGSGGGGSEIVLTQSPATLSLSPGERATLSCRASQSISDYLHWYQQKPGQAPRLLIYFASQRATGIPARFSGSGSGTDFTLTISSLEPEDFAVYYCQQGHGFPRTFGGGTKVEIK
notes: also called humanized anti-CD47 scFv; not shown: C-terminal human Fc from pYD11 vector
  binding result: binds
